Source: the RNAGym collection of RNA variant scans (doi:10.1021/acssynbio.7b00057)

B1: Pistol ribozyme (parent)
chain: GGGUCGUUGUUCCAUAAUCGCGUGGAUAUGGCACGCAAGUUUCUACCGGGCACCGUAAAUGUCCGACUGGAGCCGUUCGGGCGGCUAUAAACAGACCUCAGGCCCGAAGCGUGGCGGCACCUGCCGCCGGUGGUAAAAAAGAUCGGAAGAGCACACGUCU

Variants of: B1
Test: aptazyme ON/OFF ratio, guanine; higher = stronger switching; co-transcriptional cleavage with and without guanine

First: GGGUCGGUAUGCCAUAAUCGCGUGGAUAUGGCACGCAAGUUUCUACCGGGCACCGUAAAUGUCCGACUGGAGCCGUUCGGGCGGCUAUAAACAGACCUCAGGCCCGAAGCGUGGCGGCACCUGCCGCCGGUGGUAAAAAAGAUCGGAAGAGCACACGUCU
Second: GGGUCGGAGGGCUAUAAUCGCGUGGAUAUGGCACGCAAGUUUCUACCGGGCACCGUAAAUGUCCGACUGGAGCCGUUCGGGCGGCUAUAAACAGACCUCAGGCCCGAAGCGUGGCGGCACCUGCCGCCGGUGGUAAAAAAGAUCGGAAGAGCACACGUCU
The “aptazyme ON/OFF ratio” value of the first is higher: 1.64 for the first, 1.42 for the second.

Compared with GGGUCGACCUAGGAUAAUCGCGUGGAUAUGGCACGCAAGUUUCUACCGGGCACCGUAAAUGUCCGACUGGAGCCGUUCGGGCGGCUAUAAACAGACCUCAGGCCCGAAGCGUGGCGGCACCUGCCGCCGGUGGUAAAAAAGAUCGGAAGAGCACACGUCU, GGGUCGGUGCGCAAUAAUCGCGUGGAUAUGGCACGCAAGUUUCUACCGGGCACCGUAAAUGUCCGACUGGAGCCGUUCGGGCGGCUAUAAACAGACCUCAGGCCCGAAGCGUGGCGGCACCUGCCGCCGGUGGUAAAAAAGAUCGGAAGAGCACACGUCU is lower in “aptazyme ON/OFF ratio” value: 1.16 for the first, 1.08 for the second.

First: GGGUCGAAAACUCAUAAUCGCGUGGAUAUGGCACGCAAGUUUCUACCGGGCACCGUAAAUGUCCGACUGGAGCCGUUCGGGCGGCUAUAAACAGACCUCAGGCCCGAAGCGUGGCGGCACCUGCCGCCGGUGGUAAAAAAGAUCGGAAGAGCACACGUCU
Second: GGGUCGUUGAUUUAUAAUCGCGUGGAUAUGGCACGCAAGUUUCUACCGGGCACCGUAAAUGUCCGACUGGAGCCGUUCGGGCGGCUAUAAACAGACCUCAGGCCCGAAGCGUGGCGGCACCUGCCGCCGGUGGUAAAAAAGAUCGGAAGAGCACACGUCU
The “aptazyme ON/OFF ratio” value of the first is lower: 1.02 for the first, 1.54 for the second.

Compared with GGGUCGGAUGUAUAUAAUCGCGUGGAUAUGGCACGCAAGUUUCUACCGGGCACCGUAAAUGUCCGACUGGAGCCGUUCGGGCGGCUAUAAACAGACCUCAGGCCCGAAGCGUGGCGGCACCUGCCGCCGGUGGUAAAAAAGAUCGGAAGAGCACACGUCU, GGGUCGUCUCCAAAUAAUCGCGUGGAUAUGGCACGCAAGUUUCUACCGGGCACCGUAAAUGUCCGACUGGAGCCGUUCGGGCGGCUAUAAACAGACCUCAGGCCCGAAGCGUGGCGGCACCUGCCGCCGGUGGUAAAAAAGAUCGGAAGAGCACACGUCU is higher in “aptazyme ON/OFF ratio” value: 1.08 for the first, 1.09 for the second.

Going from GGGUCGAUUACUAAUAAUCGCGUGGAUAUGGCACGCAAGUUUCUACCGGGCACCGUAAAUGUCCGACUGGAGCCGUUCGGGCGGCUAUAAACAGACCUCAGGCCCGAAGCGUGGCGGCACCUGCCGCCGGUGGUAAAAAAGAUCGGAAGAGCACACGUCU to GGGUCGGGCCGUUAUAAUCGCGUGGAUAUGGCACGCAAGUUUCUACCGGGCACCGUAAAUGUCCGACUGGAGCCGUUCGGGCGGCUAUAAACAGACCUCAGGCCCGAAGCGUGGCGGCACCUGCCGCCGGUGGUAAAAAAGAUCGGAAGAGCACACGUCU, the “aptazyme ON/OFF ratio” value falls from 1.23 to 1.22.

First: GGGUCGUUUCGGCAUAAUCGCGUGGAUAUGGCACGCAAGUUUCUACCGGGCACCGUAAAUGUCCGACUGGAGCCGUUCGGGCGGCUAUAAACAGACCUCAGGCCCGAAGCGUGGCGGCACCUGCCGCCGGUGGUAAAAAAGAUCGGAAGAGCACACGUCU
Second: GGGUCGAUCGUAGAUAAUCGCGUGGAUAUGGCACGCAAGUUUCUACCGGGCACCGUAAAUGUCCGACUGGAGCCGUUCGGGCGGCUAUAAACAGACCUCAGGCCCGAAGCGUGGCGGCACCUGCCGCCGGUGGUAAAAAAGAUCGGAAGAGCACACGUCU
The “aptazyme ON/OFF ratio” value of the first is higher: 1.2 for the first, 1.09 for the second.

GGGUCGAUCUUUGAUAAUCGCGUGGAUAUGGCACGCAAGUUUCUACCGGGCACCGUAAAUGUCCGACUGGAGCCGUUCGGGCGGCUAUAAACAGACCUCAGGCCCGAAGCGUGGCGGCACCUGCCGCCGGUGGUAAAAAAGAUCGGAAGAGCACACGUCU and GGGUCGAAAUAUAAUAAUCGCGUGGAUAUGGCACGCAAGUUUCUACCGGGCACCGUAAAUGUCCGACUGGAGCCGUUCGGGCGGCUAUAAACAGACCUCAGGCCCGAAGCGUGGCGGCACCUGCCGCCGGUGGUAAAAAAGAUCGGAAGAGCACACGUCU are the same in “aptazyme ON/OFF ratio” value: 1.07 for the first, 1.07 for the second.

First: GGGUCGUACCCCCAUAAUCGCGUGGAUAUGGCACGCAAGUUUCUACCGGGCACCGUAAAUGUCCGACUGGAGCCGUUCGGGCGGCUAUAAACAGACCUCAGGCCCGAAGCGUGGCGGCACCUGCCGCCGGUGGUAAAAAAGAUCGGAAGAGCACACGUCU
Second: GGGUCGAUUACGUAUAAUCGCGUGGAUAUGGCACGCAAGUUUCUACCGGGCACCGUAAAUGUCCGACUGGAGCCGUUCGGGCGGCUAUAAACAGACCUCAGGCCCGAAGCGUGGCGGCACCUGCCGCCGGUGGUAAAAAAGAUCGGAAGAGCACACGUCU
The “aptazyme ON/OFF ratio” value of the first is lower: 1.01 for the first, 1.13 for the second.

First: GGGUCGGUGAUUCAUAAUCGCGUGGAUAUGGCACGCAAGUUUCUACCGGGCACCGUAAAUGUCCGACUGGAGCCGUUCGGGCGGCUAUAAACAGACCUCAGGCCCGAAGCGUGGCGGCACCUGCCGCCGGUGGUAAAAAAGAUCGGAAGAGCACACGUCU
Second: GGGUCGCCGGACAAUAAUCGCGUGGAUAUGGCACGCAAGUUUCUACCGGGCACCGUAAAUGUCCGACUGGAGCCGUUCGGGCGGCUAUAAACAGACCUCAGGCCCGAAGCGUGGCGGCACCUGCCGCCGGUGGUAAAAAAGAUCGGAAGAGCACACGUCU
The “aptazyme ON/OFF ratio” value of the first is lower: 1.16 for the first, 1.21 for the second.

Going from GGGUCGAGGAGCAAUAAUCGCGUGGAUAUGGCACGCAAGUUUCUACCGGGCACCGUAAAUGUCCGACUGGAGCCGUUCGGGCGGCUAUAAACAGACCUCAGGCCCGAAGCGUGGCGGCACCUGCCGCCGGUGGUAAAAAAGAUCGGAAGAGCACACGUCU to GGGUCGGGGGUCAAUAAUCGCGUGGAUAUGGCACGCAAGUUUCUACCGGGCACCGUAAAUGUCCGACUGGAGCCGUUCGGGCGGCUAUAAACAGACCUCAGGCCCGAAGCGUGGCGGCACCUGCCGCCGGUGGUAAAAAAGAUCGGAAGAGCACACGUCU, the “aptazyme ON/OFF ratio” value rises from 1.29 to 1.45.

Compared with GGGUCGAUAUAUUAUAAUCGCGUGGAUAUGGCACGCAAGUUUCUACCGGGCACCGUAAAUGUCCGACUGGAGCCGUUCGGGCGGCUAUAAACAGACCUCAGGCCCGAAGCGUGGCGGCACCUGCCGCCGGUGGUAAAAAAGAUCGGAAGAGCACACGUCU, GGGUCGGCCGGAAAUAAUCGCGUGGAUAUGGCACGCAAGUUUCUACCGGGCACCGUAAAUGUCCGACUGGAGCCGUUCGGGCGGCUAUAAACAGACCUCAGGCCCGAAGCGUGGCGGCACCUGCCGCCGGUGGUAAAAAAGAUCGGAAGAGCACACGUCU is lower in “aptazyme ON/OFF ratio” value: 1.42 for the first, 1.11 for the second.

Going from GGGUCGACAAGGAAUAAUCGCGUGGAUAUGGCACGCAAGUUUCUACCGGGCACCGUAAAUGUCCGACUGGAGCCGUUCGGGCGGCUAUAAACAGACCUCAGGCCCGAAGCGUGGCGGCACCUGCCGCCGGUGGUAAAAAAGAUCGGAAGAGCACACGUCU to GGGUCGAAAAUUGAUAAUCGCGUGGAUAUGGCACGCAAGUUUCUACCGGGCACCGUAAAUGUCCGACUGGAGCCGUUCGGGCGGCUAUAAACAGACCUCAGGCCCGAAGCGUGGCGGCACCUGCCGCCGGUGGUAAAAAAGAUCGGAAGAGCACACGUCU, the “aptazyme ON/OFF ratio” value rises from 1.11 to 1.19.

First: GGGUCGAGAUUAGAUAAUCGCGUGGAUAUGGCACGCAAGUUUCUACCGGGCACCGUAAAUGUCCGACUGGAGCCGUUCGGGCGGCUAUAAACAGACCUCAGGCCCGAAGCGUGGCGGCACCUGCCGCCGGUGGUAAAAAAGAUCGGAAGAGCACACGUCU
Second: GGGUCGUCUAUAUAUAAUCGCGUGGAUAUGGCACGCAAGUUUCUACCGGGCACCGUAAAUGUCCGACUGGAGCCGUUCGGGCGGCUAUAAACAGACCUCAGGCCCGAAGCGUGGCGGCACCUGCCGCCGGUGGUAAAAAAGAUCGGAAGAGCACACGUCU
The “aptazyme ON/OFF ratio” value of the first is higher: 1.19 for the first, 1.13 for the second.

Going from GGGUCGGAGCAAAAUAAUCGCGUGGAUAUGGCACGCAAGUUUCUACCGGGCACCGUAAAUGUCCGACUGGAGCCGUUCGGGCGGCUAUAAACAGACCUCAGGCCCGAAGCGUGGCGGCACCUGCCGCCGGUGGUAAAAAAGAUCGGAAGAGCACACGUCU to GGGUCGCCGGCACAUAAUCGCGUGGAUAUGGCACGCAAGUUUCUACCGGGCACCGUAAAUGUCCGACUGGAGCCGUUCGGGCGGCUAUAAACAGACCUCAGGCCCGAAGCGUGGCGGCACCUGCCGCCGGUGGUAAAAAAGAUCGGAAGAGCACACGUCU, the “aptazyme ON/OFF ratio” value falls from 1.49 to 1.41.

First: GGGUCGGGAUACAAUAAUCGCGUGGAUAUGGCACGCAAGUUUCUACCGGGCACCGUAAAUGUCCGACUGGAGCCGUUCGGGCGGCUAUAAACAGACCUCAGGCCCGAAGCGUGGCGGCACCUGCCGCCGGUGGUAAAAAAGAUCGGAAGAGCACACGUCU
Second: GGGUCGCUGUCGGAUAAUCGCGUGGAUAUGGCACGCAAGUUUCUACCGGGCACCGUAAAUGUCCGACUGGAGCCGUUCGGGCGGCUAUAAACAGACCUCAGGCCCGAAGCGUGGCGGCACCUGCCGCCGGUGGUAAAAAAGAUCGGAAGAGCACACGUCU
The “aptazyme ON/OFF ratio” value of the first is higher: 1.35 for the first, 1.29 for the second.

Compared with GGGUCGAAGACUAAUAAUCGCGUGGAUAUGGCACGCAAGUUUCUACCGGGCACCGUAAAUGUCCGACUGGAGCCGUUCGGGCGGCUAUAAACAGACCUCAGGCCCGAAGCGUGGCGGCACCUGCCGCCGGUGGUAAAAAAGAUCGGAAGAGCACACGUCU, GGGUCGUCGGAACAUAAUCGCGUGGAUAUGGCACGCAAGUUUCUACCGGGCACCGUAAAUGUCCGACUGGAGCCGUUCGGGCGGCUAUAAACAGACCUCAGGCCCGAAGCGUGGCGGCACCUGCCGCCGGUGGUAAAAAAGAUCGGAAGAGCACACGUCU is higher in “aptazyme ON/OFF ratio” value: 1.11 for the first, 1.32 for the second.

Going from GGGUCGAAGCGAGAUAAUCGCGUGGAUAUGGCACGCAAGUUUCUACCGGGCACCGUAAAUGUCCGACUGGAGCCGUUCGGGCGGCUAUAAACAGACCUCAGGCCCGAAGCGUGGCGGCACCUGCCGCCGGUGGUAAAAAAGAUCGGAAGAGCACACGUCU to GGGUCGCACGUCGAUAAUCGCGUGGAUAUGGCACGCAAGUUUCUACCGGGCACCGUAAAUGUCCGACUGGAGCCGUUCGGGCGGCUAUAAACAGACCUCAGGCCCGAAGCGUGGCGGCACCUGCCGCCGGUGGUAAAAAAGAUCGGAAGAGCACACGUCU, the “aptazyme ON/OFF ratio” value falls from 1.16 to 1.11.

Going from GGGUCGUGGAAGUAUAAUCGCGUGGAUAUGGCACGCAAGUUUCUACCGGGCACCGUAAAUGUCCGACUGGAGCCGUUCGGGCGGCUAUAAACAGACCUCAGGCCCGAAGCGUGGCGGCACCUGCCGCCGGUGGUAAAAAAGAUCGGAAGAGCACACGUCU to GGGUCGAUGUAGAAUAAUCGCGUGGAUAUGGCACGCAAGUUUCUACCGGGCACCGUAAAUGUCCGACUGGAGCCGUUCGGGCGGCUAUAAACAGACCUCAGGCCCGAAGCGUGGCGGCACCUGCCGCCGGUGGUAAAAAAGAUCGGAAGAGCACACGUCU, the “aptazyme ON/OFF ratio” value rises from 1.07 to 1.08.
